Source: PMC11844729 (Science Advances, 2025)

Biological target: T1, mN2G^SR (mini-nesprin-2G lacking the transmembrane KASH domain, with C-terminal sfGFP-6xHis) (mouse, UniProt Q6ZWQ0-1)
T1 chain: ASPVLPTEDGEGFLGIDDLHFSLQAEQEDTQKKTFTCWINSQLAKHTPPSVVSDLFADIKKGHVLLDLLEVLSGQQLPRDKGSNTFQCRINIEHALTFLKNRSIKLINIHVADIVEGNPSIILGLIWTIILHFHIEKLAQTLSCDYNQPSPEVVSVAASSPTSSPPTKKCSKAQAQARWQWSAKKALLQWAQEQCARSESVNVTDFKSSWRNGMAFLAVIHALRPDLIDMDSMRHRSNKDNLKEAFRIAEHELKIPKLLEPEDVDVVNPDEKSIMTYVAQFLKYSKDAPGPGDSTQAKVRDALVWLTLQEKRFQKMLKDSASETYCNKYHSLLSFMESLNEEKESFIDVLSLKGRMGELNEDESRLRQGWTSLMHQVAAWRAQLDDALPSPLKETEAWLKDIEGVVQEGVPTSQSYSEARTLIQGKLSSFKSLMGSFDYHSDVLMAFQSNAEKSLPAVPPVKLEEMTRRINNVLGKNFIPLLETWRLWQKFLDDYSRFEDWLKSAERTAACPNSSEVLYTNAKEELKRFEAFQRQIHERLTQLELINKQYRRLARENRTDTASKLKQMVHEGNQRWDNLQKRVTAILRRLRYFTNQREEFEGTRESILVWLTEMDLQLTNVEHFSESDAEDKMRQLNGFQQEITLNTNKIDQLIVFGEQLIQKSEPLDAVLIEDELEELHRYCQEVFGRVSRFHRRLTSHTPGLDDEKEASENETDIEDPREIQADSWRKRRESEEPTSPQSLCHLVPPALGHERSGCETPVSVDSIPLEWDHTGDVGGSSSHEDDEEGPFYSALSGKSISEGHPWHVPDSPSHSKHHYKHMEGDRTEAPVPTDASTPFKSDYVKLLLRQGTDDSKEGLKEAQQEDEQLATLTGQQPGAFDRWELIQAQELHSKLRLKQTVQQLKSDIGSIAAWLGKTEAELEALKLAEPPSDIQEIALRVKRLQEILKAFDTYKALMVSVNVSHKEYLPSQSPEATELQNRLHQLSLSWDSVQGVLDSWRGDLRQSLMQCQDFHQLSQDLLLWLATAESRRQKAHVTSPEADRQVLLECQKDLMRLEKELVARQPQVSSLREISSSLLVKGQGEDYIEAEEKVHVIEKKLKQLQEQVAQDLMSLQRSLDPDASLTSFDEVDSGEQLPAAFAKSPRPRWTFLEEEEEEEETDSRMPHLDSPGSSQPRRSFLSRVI
Test: TIRF microscopy

B1: kinesin heterotetramer composed of the KIF5B KHC and KLC2 (K5B2) (complex)
chain 1: MADLAECNIKVMCRFRPLNESEVNRGDKYIAKFQGEDTVVIASKPYAFDRVFQSSTSQEQVYNDCAKKIVKDVLEGYNGTIFAYGQTSSGKTHTMEGKLHDPEGMGIIPRIVQDIFNYIYSMDENLEFHIKVSYFEIYLDKIRDLLDVSKTNLSVHEDKNRVPYVKGCTERFVCSPDEVMDTIDEGKSNRHVAVTNMNEHSSRSHSIFLINVKQENTQTEQKLSGKLYLVDLAGSEKVSKTGAEGAVLDEAKNINKSLSALGNVISALAEGSTYVPYRDSKMTRILQDSLGGNCRTTIVICCSPSSYNESETKSTLLFGQRAKTIKNTVCVNVELTAEQWKKKYEKEKEKNKILRNTIQWLENELNRWRNGETVPIDEQFDKEKANLEAFTVDKDITLTNDKPATAIGVIGNFTDAERRKCEEEIAKLYKQLDDKDEEINQQSQLVEKLKTQMLDQEELLASTRRDQDNMQAELNRLQAENDASKEEVKEVLQALEELAVNYDQKSQEVEDKTKEYELLSDELNQKSATLASIDAELQKLKEMTNHQKKRAAEMMASLLKDLAEIGIAVGNNDVKQPEGTGMIDEEFTVARLYISKMKSEVKTMVKRCKQLESTQTESNKKMEENEKELAACQLRISQHEAKIKSLTEYLQNVEQKKRQLEESVDALSEELVQLRAQEKVHEMEKEHLNKVQTANEVKQAVEQQIQSHRETHQKQISSLRDEVEAKAKLITDLQDQNQKMMLEQERLRVEHEKLKATDQEKSRKLHELTVMQDRREQARQDLKGLEETVAKELQTLHNLRKLFVQDLATRVKKSAEIDSDDTGGSAAQKQKISFLENNLEQLTKVHKQLVRDNADLRCELPKLEKRLRATAERVKALESALKEAKENASRDRKRYQQEVDRIKEAVRSKNMARRGHSAQIAKPIRPGQHPAASPTHPSAIRGGGAFVQNSQPVAVRGGGGKQV
chain 2: MAMMVFPREEKLSQDEIVLGTKAVIQGLETLRGEHRALLAPLVAPEAGEAEPGSQERCILLRRSLEAIELGLGEAQVILALSSHLGAVESEKQKLRAQVRRLVQENQWLREELAGTQQKLQRSEQAVAQLEEEKQHLLFMSQIRKLDEDASPNEEKGDVPKDTLDDLFPNEDEQSPAPSPGGGDVSGQHGGYEIPARLRTLHNLVIQYASQGRYEVAVPLCKQALEDLEKTSGHDHPDVATMLNILALVYRDQNKYKEAAHLLNDALAIREKTLGKDHPAVAATLNNLAVLYGKRGKYKEAEPLCKRALEIREKVLGKFHPDVAKQLSNLALLCQNQGKAEEVEYYYRRALEIYATRLGPDDPNVAKTKNNLASCYLKQGKYQDAETLYKEILTRAHEKEFGSVNGDNKPIWMHAEEREESKDKRRDSAPYGEYGSWYKACKVDSPTVNTTLRSLGALYRRQGKLEAAHTLEDCASRNRKQGLDPASQTKVVELLKDGSGRRGDRRSSRDMAGGAGPRSESDLEDVGPTAEWNGDGSGSLRRSGSFGKLRDALRRSSEMLVKKLQGGTPQEPPNPRMKRASSLNFLNKSVEEPTQPGGTGLSDSRTLSSSSMDLSRRSSLVG
With B1 as the binder, how does the “fold recruitment to F-actin against mN2G^CH” value read?
Its value is greater than 115 fold.
